{
  "source": "patent US20220389118A1",
  "about": "(Chugai, published 2022)",
  "binders": {"B1": {"name": "IL6R-2B253/IL6R-L (antibody, human IgG1, kappa)", "heavy": "QVQLQESGPGLVKPSETLSLTCAVSGHSISHDHAWSWVRQPPGEGLEWIGFISYSGITNYNPSLQGRVTISRDNSKNTLYLQMNSLRAEDTAVYYCARSLARTTAMDYWGEGTLVTVSSASTKGPSVFPLAPSSKSTSGGTAALGCLVKDYFPEPVTVSWNSGALTSGVHTFPAVLQSSGLYSLSSVVTVPSSSLGTQTYICNVNHKPSNTKVDKKVEPKSCDKTHTCPPCPAPDLLGGDSVFLFPPKPKDTLMISRTPEVTCVVVDVSHEDPEVKFNWYVDGVEVHNAKTKPREEQYNSTYRVVSVLTVLHQDWLNGKEYKCKMSNKALPAPIEKTISKAKGQPREPQVYTLPPSRDELTKNQVSLTCLVKGFYPSDIAVEWESNGQPENNYKTTPPVLDSDGSFFLYSKLTVDKSRWQQGNVFSCSVMHEALHNHYTQESLSLSP", "light": "not shown", "notes": "EU numbering; alterations on IL6R-B3; copies: 2 + 2"}, "B2": {"name": "IL6R-BP238/IL6R-L (antibody, human IgG1, kappa)", "heavy": "B1 heavy with L236Y, G239D, H270D, P273G, Y298D, M325V, K328A, A332R", "light": "not shown", "notes": "copies: 2 + 2"}, "B3": {"name": "IL6R-PD080/IL6R-L (antibody, human IgG1, kappa)", "heavy": "B1 heavy with D235E, G239D, M254Y, M325V, N436Y, E441K", "light": "not shown", "notes": "also called P238D/G237D; G237D/P238D; copies: 2 + 2"}, "B4": {"name": "IL6R-BP132/IL6R-L (antibody, human IgG1, kappa)", "heavy": "B1 heavy with M325V, K328A, A332K", "light": "not shown", "notes": "as for B1"}, "B5": {"name": "IL6R-BP517/IL6R-L (antibody, human IgG1, kappa)", "heavy": "B1 heavy with G239D, H270E, P273G, E274I, M325V", "light": "not shown", "notes": "E272I introduced into IL6R-BP267; copies: 2 + 2"}, "B6": {"name": "IL6R-BP234/IL6R-L (antibody, human IgG1, kappa)", "heavy": "B1 heavy with L236Y, G239D, S269Q, H270D, P273G, Y298D, M325V, K328D, A332K", "light": "not shown", "notes": "copies: 2 + 2"}, "B7": {"name": "IL6R-BP106/IL6R-L (antibody, human IgG1, kappa)", "heavy": "B1 heavy with D235E, H270D, M325V", "light": "not shown", "notes": "IgG1 type"}, "B8": {"name": "IL6R-2B261/IL6R-L (antibody, human IgG1, kappa)", "heavy": "B1 heavy with Y298D, M325V", "light": "not shown", "notes": "as for B1"}, "B9": {"name": "IL6R-BP217/IL6R-L (antibody, human IgG1, kappa)", "heavy": "B1 heavy with D235E, G239D, S269Q, H270D, P273G, Y298D, M325V, A332K", "light": "not shown", "notes": "copies: 2 + 2"}, "B10": {"name": "IL6R-BP520/IL6R-L (antibody, human IgG1, kappa)", "heavy": "B1 heavy with G239D, H270E, P273G, E274M, M325V", "light": "not shown", "notes": "E272M introduced into IL6R-BP267; copies: 2 + 2"}, "B11": {"name": "IL6R-BP474/IL6R-L (antibody, human IgG1, kappa)", "heavy": "B1 heavy with G239D, H270D, P273G, Y298D, M325V, A332S, P333S", "light": "not shown", "notes": "A330S and P331S introduced into IL6R-BP230; copies: 2 + 2"}, "B12": {"name": "IL6R-BP350/IL6R-L (antibody, human IgG1, kappa)", "heavy": "B1 heavy with G239D, S269E, H270E, P273G, M325V", "light": "not shown", "notes": "S267E introduced into IL6R-BP267; copies: 2 + 2"}, "B13": {"name": "IL6R-BP243/IL6R-L (antibody, human IgG1, kappa)", "heavy": "B1 heavy with L236Y, G239D, H270D, P273G, M325V, A332R", "light": "not shown", "notes": "copies: 2 + 2"}, "B14": {"name": "IL6R-BP241/IL6R-L (antibody, human IgG1, kappa)", "heavy": "B1 heavy with G239D, H270D, P273G, M325V, K328D, A332R", "light": "not shown", "notes": "copies: 2 + 2"}},
  "key": {"[1]": {"biological_target": "T1, human FcγRIIIa type V extracellular domain with C-terminal His tag (human, UniProt P08637 17-208)", "T1 construct": "extracellular domain; also called FcγRIIIaV; FcgRIIIaV", "assay": "SPR (Biacore)", "T1 sequence (P08637 17-208 F176V)": "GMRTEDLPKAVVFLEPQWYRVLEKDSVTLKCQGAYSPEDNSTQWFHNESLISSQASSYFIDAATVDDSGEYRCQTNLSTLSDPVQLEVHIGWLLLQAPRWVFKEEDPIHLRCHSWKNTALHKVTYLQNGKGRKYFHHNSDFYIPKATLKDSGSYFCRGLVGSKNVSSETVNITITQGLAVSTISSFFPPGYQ"}, "[2]": {"biological_target": "T2, human FcγRIIa type R extracellular domain with C-terminal His tag (human, UniProt P12318 34-217)", "T2 construct": "extracellular domain; also called FcγRIIaR; FcgRIIaR", "T2 sequence (looked up)": "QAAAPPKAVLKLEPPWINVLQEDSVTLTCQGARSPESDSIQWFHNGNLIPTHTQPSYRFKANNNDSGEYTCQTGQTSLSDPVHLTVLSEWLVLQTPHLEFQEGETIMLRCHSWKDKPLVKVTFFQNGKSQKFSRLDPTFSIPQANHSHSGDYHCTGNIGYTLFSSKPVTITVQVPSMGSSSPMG", "assay": "SPR (Biacore)"}, "[3]": {"biological_target": "T3, human FcγRIIa type H (allotype H131) extracellular domain with C-terminal His tag (human, UniProt P12318 34-217)", "T3 construct": "extracellular domain; also called FcγRIIaH; FcγRIIa H type; not shown: His tag at the C terminus", "T3 sequence (looked up)": "T2 sequence (looked up) with R134H", "assay": "SPR (Biacore), antibody captured, FcγR analyte"}, "[4]": {"biological_target": "T4, human FcγRIIb extracellular domain with C-terminal His tag (human, UniProt P31994 43-217)", "T4 construct": "extracellular domain; for crystals expressed with kifunensine and trimmed with Endo F1; also called FcγRIIb extracellular region", "T4 sequence (looked up)": "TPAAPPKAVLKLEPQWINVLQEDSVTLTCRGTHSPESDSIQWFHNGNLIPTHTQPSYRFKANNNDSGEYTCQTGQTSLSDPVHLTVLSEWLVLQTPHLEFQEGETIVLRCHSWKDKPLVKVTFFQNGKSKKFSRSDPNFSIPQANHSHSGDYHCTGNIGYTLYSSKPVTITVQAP", "assay": "SPR, Ref. Ex. 25"}, "[5]": {"biological_target": "T5, human FcγRIIa type R extracellular domain with C-terminal His tag (human, UniProt P12318 34-217)", "T5 construct": "extracellular domain; also called FcγRIIaR; FcγRIIa R", "T5 sequence (looked up)": "T2 sequence (looked up)", "assay": "SPR, Ref. Ex. 25"}, "[6]": {"biological_target": "T6, human FcγRIIIa type V extracellular domain with C-terminal His tag (human, UniProt P08637 17-208)", "T6 construct": "extracellular domain; also called FcγRIIIaV; FcγRIIIa V type", "assay": "SPR, Ref. Ex. 25", "T6 sequence (P08637 17-208 F176V)": "as the sequence (P08637 17-208 F176V) above"}, "[7]": {"biological_target": "T7, human FcγRIIa type H extracellular domain with C-terminal His tag (human, UniProt P12318 34-217)", "T7 construct": "extracellular domain; also called FcγRIIaH; FcgRIIaH", "T7 sequence (looked up)": "T2 sequence (looked up) with R134H", "assay": "SPR (Biacore)"}, "[8]": {"biological_target": "T8, human FcγRIIa type R (R131) extracellular domain with C-terminal His tag (human, UniProt P12318 34-217)", "T8 construct": "extracellular domain; also called FcγRIIaR; not shown: His tag at the C terminus", "T8 sequence (looked up)": "T2 sequence (looked up)", "assay": "SPR (Biacore), antibody captured, FcγR analyte"}, "[9]": {"biological_target": "T9, human FcγRIIb extracellular domain with C-terminal His tag (human, UniProt P31994 43-217)", "T9 construct": "extracellular domain; also called FcgRIIb", "T9 sequence (looked up)": "T4 sequence (looked up)", "assay": "SPR (Biacore), antibody captured, FcγR as analyte"}, "[10]": {"biological_target": "T10, human FcγRIIa type R extracellular domain with C-terminal His tag (human, UniProt P12318 34-217)", "T10 construct": "extracellular domain; also called FcγRIIaR; FcgRIIaR", "T10 sequence (looked up)": "T2 sequence (looked up)", "assay": "SPR (Biacore), antibody captured, FcγR as analyte"}, "[11]": {"biological_target": "T11, human FcγRIa extracellular domain with C-terminal His tag (human, UniProt P12314 16-292)", "T11 construct": "also called FcgRIa", "assay": "SPR (Biacore), antibody captured, FcγR as analyte", "T11 sequence (P12314 16-292)": "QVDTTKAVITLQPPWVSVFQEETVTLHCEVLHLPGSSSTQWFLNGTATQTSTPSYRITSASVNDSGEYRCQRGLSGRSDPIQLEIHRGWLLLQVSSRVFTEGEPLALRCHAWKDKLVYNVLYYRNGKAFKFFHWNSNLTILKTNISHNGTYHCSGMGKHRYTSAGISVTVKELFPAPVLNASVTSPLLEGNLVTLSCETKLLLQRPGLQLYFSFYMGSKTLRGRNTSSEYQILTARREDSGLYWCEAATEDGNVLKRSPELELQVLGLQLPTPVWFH"}, "[12]": {"biological_target": "T12, human FcγRIa extracellular domain with C-terminal His tag (human, UniProt P12314 16-292)", "T12 construct": "extracellular domain; also called FcgRIa", "assay": "SPR (Biacore)", "T12 sequence (P12314 16-292)": "as above"}, "[13]": {"biological_target": "T13, human FcγRIIb extracellular domain with C-terminal His tag (human, UniProt P31994 43-217)", "T13 construct": "extracellular domain; also called FcgRIIb", "T13 sequence (looked up)": "T4 sequence (looked up)", "assay": "SPR (Biacore)"}, "[14]": {"biological_target": "T14, human FcγRIIIa type V (allotype V158) extracellular domain with C-terminal His tag (human, UniProt P08637 17-208)", "T14 construct": "extracellular domain; also called FcγRIIIaV; FcγRIIIa V type; not shown: His tag at the C terminus", "T14 sequence (P08637 17-208 F176V)": "as the sequence (P08637 17-208 F176V) above", "assay": "SPR (Biacore), antibody captured, FcγR analyte"}, "[15]": {"biological_target": "T8, human FcγRIIa type R (R131) …", "assay": "SPR (Biacore), antibody captured, FcγR analyte", "remark": "listed apart in the source"}, "[16]": {"biological_target": "T15, human FcγRIIb extracellular domain with C-terminal His tag (human, UniProt P31994 43-217)", "T15 construct": "extracellular domain; not shown: His tag at the C terminus", "T15 sequence (looked up)": "T4 sequence (looked up)", "assay": "SPR (Biacore), antibody captured, FcγR analyte"}, "[17]": {"biological_target": "T16, human FcγRIa extracellular domain with C-terminal His tag (human, UniProt P12314 16-292)", "T16 construct": "not shown: His tag at the C terminus", "assay": "SPR (Biacore), antibody captured, FcγR analyte", "T16 sequence (P12314 16-292)": "as the sequence (P12314 16-292) above"}},
  "note": "Positions count from the first letter of the chain named. In names and notes the source's numbering stands. Where two headings read alike, the source gives them in different places.",
  "data": [
    {"binder": "B1", "values": [
      {"measurement": "Kd", "setting": "[1]", "value": 50, "unit": "µM"},
      {"measurement": "Kd", "setting": "[2]", "value": 5, "unit": "µM"}
    ]},
    {"binder": "B2", "values": [
      {"measurement": "Kd", "setting": "[3]", "value": 7, "unit": "µM"}
    ]},
    {"binder": "B3", "values": [
      {"measurement": "Kd", "setting": "[4]", "value": 2, "unit": "µM"},
      {"measurement": "Kd", "setting": "[5]", "value": 21, "unit": "µM"},
      {"measurement": "Kd", "setting": "[6]", "value": 43, "unit": "µM"}
    ]},
    {"binder": "B4", "values": [
      {"measurement": "Kd", "setting": "[2]", "value": 8, "unit": "µM"},
      {"measurement": "Kd", "setting": "[7]", "value": 30, "unit": "µM"}
    ]},
    {"binder": "B5", "values": [
      {"measurement": "Kd", "setting": "[8]", "value": 2.1, "unit": "µM"}
    ]},
    {"binder": "B6", "values": [
      {"measurement": "Kd", "setting": "[3]", "value": 20, "unit": "µM"}
    ]},
    {"binder": "B7", "values": [
      {"measurement": "KD(IIb) of parent polypeptide/KD(IIb) of altered polypeptide", "setting": "[9]", "value": 3.3, "unit": "fold vs IL6R-B3/IL6R-L"},
      {"measurement": "Kd", "setting": "[10]", "value": 11, "unit": "µM"},
      {"measurement": "Kd", "setting": "[11]", "value": 0.004, "unit": "µM"}
    ]},
    {"binder": "B8", "values": [
      {"measurement": "Kd", "setting": "[12]", "value": 0.009, "unit": "µM"},
      {"measurement": "Kd", "setting": "[13]", "value": 1, "unit": "µM"}
    ]},
    {"binder": "B9", "values": [
      {"measurement": "Kd", "setting": "[14]", "value": 60, "unit": "µM"}
    ]},
    {"binder": "B10", "values": [
      {"measurement": "Kd", "setting": "[8]", "value": 3, "unit": "µM"}
    ]},
    {"binder": "B11", "values": [
      {"measurement": "Kd", "setting": "[15]", "value": 3, "unit": "µM"}
    ]},
    {"binder": "B12", "values": [
      {"measurement": "Kd", "setting": "[16]", "value": 0.1, "unit": "µM"}
    ]},
    {"binder": "B13", "values": [
      {"measurement": "Kd", "setting": "[17]", "value": 0.003, "unit": "µM"},
      {"measurement": "Kd", "setting": "[3]", "value": 6, "unit": "µM"}
    ]},
    {"binder": "B14", "values": [
      {"measurement": "Kd", "setting": "[3]", "value": 9, "unit": "µM"}
    ]}
  ]
}
